Measurements published in article PMC5722895, “The dynamic dimer structure of the chaperone Trigger Factor” (Nature Communications, 2017).

Molecular target: the molecule itself
Assay: SEC-MALS; sample buffer (20 mM K-phosphate pH 6.5, 100 mM KCl, 0.5 mM EDTA); 6 °C for the individual domains; concentration series fitted to a fast monomer–dimer equilibrium; dimer to monomers

| Protein | Kd [µM] |
| --- | --- |
| RBD (residues 1–117) (domain or fragment, E. coli, UniProt P0A850 1-117, looked up, Trigger Factor, E. coli, residues 1-117 (stop codon at position 118); not shown: His tag, N-terminal, cleaved) MQVSVETTQGLGRRVTITIAADSIETAVKSELVNVAKKVRIDGFRKGKVPMNIVAQRYGASVRQDVLGDLMSRNFIDAIIKEKINPAGAPTYVPGEYKLGEDFTYSVEFEVYPEVEL | ≥ 1500 |
| SBD (114–148/247–432) (domain or fragment, E. coli, UniProt P0A850 114-148, looked up, Trigger Factor, E. coli, residues 114-148 (linker part of the SBD); Trigger Factor, E. coli, residues 247-432 (C-terminal part of the SBD); The PPD (149-246) is left out; not shown: His tag, N-terminal, cleaved) EVELQGLEAIEVEKPIVEVTDADVDGMLDTLRKQQELTAEFIKRFGVEDGSVEGLRAEVRKNMERELKSAIRNRVKSQAIEGLVKANDIDVPAALIDSEIDVLRRQAAQRFGGNEKQALELPRELFEEQAKRRVVVGLLLGEVIRTNELKADEERVKGLIEEMASAYEDPKEVIEFYSKNKELMDNMRNVALEEQAVEAVLAKAKVTEKETTFNELMNQQA | > 1000 |
| PPD (149–249) (domain or fragment, E. coli, UniProt P0A850 149-249, looked up, Trigger Factor, E. coli, residues 149-249; also called peptidyl-prolyl isomerase domain; not shown: His tag, N-terminal, cleaved) ATWKEKDGAVEAEDRVTIDFTGSVDGEEFEGGKASDFVLAMGQGRMIPGFEDGIKGHKAGEEFTIDVTFPEEYHAENLKGKAAKFAINLKKVEERELPELT | > 5000 |
| SBD–PPD (114–432) (domain or fragment, E. coli, UniProt P0A850 114-432, looked up, Trigger Factor, E. coli, residues 114-432; also called bi-domain construct SBD–PPD; not shown: His tag, N-terminal, cleaved) EVELQGLEAIEVEKPIVEVTDADVDGMLDTLRKQQATWKEKDGAVEAEDRVTIDFTGSVDGEEFEGGKASDFVLAMGQGRMIPGFEDGIKGHKAGEEFTIDVTFPEEYHAENLKGKAAKFAINLKKVEERELPELTAEFIKRFGVEDGSVEGLRAEVRKNMERELKSAIRNRVKSQAIEGLVKANDIDVPAALIDSEIDVLRRQAAQRFGGNEKQALELPRELFEEQAKRRVVVGLLLGEVIRTNELKADEERVKGLIEEMASAYEDPKEVIEFYSKNKELMDNMRNVALEEQAVEAVLAKAKVTEKETTFNELMNQQA | > 1000 |

Molecular target: the molecule itself
Assay: SEC-MALS; concentration series of full-length TF and full-length mutants alone, 26 °C, sample buffer (20 mM K-phosphate pH 6.5, 100 mM KCl, 0.5 mM EDTA); fit to a fast monomer-dimer equilibrium; dimer to monomers

| Protein | Kd [µM] |
| --- | --- |
| TF(3A) with mutation set mutC (M140E) (natural protein, E. coli, UniProt P0A850 1-432, looked up, Trigger Factor, E. coli, residues 1-432, TF(3A) background; not shown: His6, N-terminal, cleaved) MQVSVETTQGLGRRVTITIAADSIETAVKSELVNVAKKVRIDGAAAGKVPMNIVAQRYGASVRQDVLGDLMSRNFIDAIIKEKINPAGAPTYVPGEYKLGEDFTYSVEFEVYPEVELQGLEAIEVEKPIVEVTDADVDGELDTLRKQQATWKEKDGAVEAEDRVTIDFTGSVDGEEFEGGKASDFVLAMGQGRMIPGFEDGIKGHKAGEEFTIDVTFPEEYHAENLKGKAAKFAINLKKVEERELPELTAEFIKRFGVEDGSVEGLRAEVRKNMERELKSAIRNRVKSQAIEGLVKANDIDVPAALIDSEIDVLRRQAAQRFGGNEKQALELPRELFEEQAKRRVVVGLLLGEVIRTNELKADEERVKGLIEEMASAYEDPKEVIEFYSKNKELMDNMRNVALEEQAVEAVLAKAKVTEKETTFNELMNQQA | 28 |
| TF(3A) with mutation set mutD (R316A, R321A) (natural protein, E. coli, UniProt P0A850 1-432, looked up, Trigger Factor, E. coli, residues 1-432, TF(3A) background; not shown: His6, N-terminal, cleaved) MQVSVETTQGLGRRVTITIAADSIETAVKSELVNVAKKVRIDGAAAGKVPMNIVAQRYGASVRQDVLGDLMSRNFIDAIIKEKINPAGAPTYVPGEYKLGEDFTYSVEFEVYPEVELQGLEAIEVEKPIVEVTDADVDGMLDTLRKQQATWKEKDGAVEAEDRVTIDFTGSVDGEEFEGGKASDFVLAMGQGRMIPGFEDGIKGHKAGEEFTIDVTFPEEYHAENLKGKAAKFAINLKKVEERELPELTAEFIKRFGVEDGSVEGLRAEVRKNMERELKSAIRNRVKSQAIEGLVKANDIDVPAALIDSEIDVLRAQAAQAFGGNEKQALELPRELFEEQAKRRVVVGLLLGEVIRTNELKADEERVKGLIEEMASAYEDPKEVIEFYSKNKELMDNMRNVALEEQAVEAVLAKAKVTEKETTFNELMNQQA | 22 |
| TF(3A) with mutation sets mutD + mutC (R316A, R321A, M140E) (natural protein, E. coli, UniProt P0A850 1-432, looked up, Trigger Factor, E. coli, residues 1-432, TF(3A) background; also called mutC + mutD; not shown: His6, N-terminal, cleaved) MQVSVETTQGLGRRVTITIAADSIETAVKSELVNVAKKVRIDGAAAGKVPMNIVAQRYGASVRQDVLGDLMSRNFIDAIIKEKINPAGAPTYVPGEYKLGEDFTYSVEFEVYPEVELQGLEAIEVEKPIVEVTDADVDGELDTLRKQQATWKEKDGAVEAEDRVTIDFTGSVDGEEFEGGKASDFVLAMGQGRMIPGFEDGIKGHKAGEEFTIDVTFPEEYHAENLKGKAAKFAINLKKVEERELPELTAEFIKRFGVEDGSVEGLRAEVRKNMERELKSAIRNRVKSQAIEGLVKANDIDVPAALIDSEIDVLRAQAAQAFGGNEKQALELPRELFEEQAKRRVVVGLLLGEVIRTNELKADEERVKGLIEEMASAYEDPKEVIEFYSKNKELMDNMRNVALEEQAVEAVLAKAKVTEKETTFNELMNQQA | 260 |
| TF(3A) with mutation sets mutB + mutC (M374A, Y378A, V384A, F387A, M140E) (natural protein, E. coli, UniProt P0A850 1-432, looked up, Trigger Factor, E. coli, residues 1-432, TF(3A) background; also called mutC + mutB; not shown: His6, N-terminal, cleaved) MQVSVETTQGLGRRVTITIAADSIETAVKSELVNVAKKVRIDGAAAGKVPMNIVAQRYGASVRQDVLGDLMSRNFIDAIIKEKINPAGAPTYVPGEYKLGEDFTYSVEFEVYPEVELQGLEAIEVEKPIVEVTDADVDGELDTLRKQQATWKEKDGAVEAEDRVTIDFTGSVDGEEFEGGKASDFVLAMGQGRMIPGFEDGIKGHKAGEEFTIDVTFPEEYHAENLKGKAAKFAINLKKVEERELPELTAEFIKRFGVEDGSVEGLRAEVRKNMERELKSAIRNRVKSQAIEGLVKANDIDVPAALIDSEIDVLRRQAAQRFGGNEKQALELPRELFEEQAKRRVVVGLLLGEVIRTNELKADEERVKGLIEEAASAAEDPKEAIEAYSKNKELMDNMRNVALEEQAVEAVLAKAKVTEKETTFNELMNQQA | > 1000 |
| TF(3A) with mutation sets mutB + mutD (M374A, Y378A, V384A, F387A, R316A, R321A) (natural protein, E. coli, UniProt P0A850 1-432, looked up, Trigger Factor, E. coli, residues 1-432, TF(3A) background; not shown: His6, N-terminal, cleaved) MQVSVETTQGLGRRVTITIAADSIETAVKSELVNVAKKVRIDGAAAGKVPMNIVAQRYGASVRQDVLGDLMSRNFIDAIIKEKINPAGAPTYVPGEYKLGEDFTYSVEFEVYPEVELQGLEAIEVEKPIVEVTDADVDGMLDTLRKQQATWKEKDGAVEAEDRVTIDFTGSVDGEEFEGGKASDFVLAMGQGRMIPGFEDGIKGHKAGEEFTIDVTFPEEYHAENLKGKAAKFAINLKKVEERELPELTAEFIKRFGVEDGSVEGLRAEVRKNMERELKSAIRNRVKSQAIEGLVKANDIDVPAALIDSEIDVLRAQAAQAFGGNEKQALELPRELFEEQAKRRVVVGLLLGEVIRTNELKADEERVKGLIEEAASAAEDPKEAIEAYSKNKELMDNMRNVALEEQAVEAVLAKAKVTEKETTFNELMNQQA | > 1000 |
| TF(3A) variant TF(F44A, R45A, K46A) (natural protein, E. coli, UniProt P0A850 1-432, looked up, not shown: His6, N-terminal, cleaved) MQVSVETTQGLGRRVTITIAADSIETAVKSELVNVAKKVRIDGAAAGKVPMNIVAQRYGASVRQDVLGDLMSRNFIDAIIKEKINPAGAPTYVPGEYKLGEDFTYSVEFEVYPEVELQGLEAIEVEKPIVEVTDADVDGMLDTLRKQQATWKEKDGAVEAEDRVTIDFTGSVDGEEFEGGKASDFVLAMGQGRMIPGFEDGIKGHKAGEEFTIDVTFPEEYHAENLKGKAAKFAINLKKVEERELPELTAEFIKRFGVEDGSVEGLRAEVRKNMERELKSAIRNRVKSQAIEGLVKANDIDVPAALIDSEIDVLRRQAAQRFGGNEKQALELPRELFEEQAKRRVVVGLLLGEVIRTNELKADEERVKGLIEEMASAYEDPKEVIEFYSKNKELMDNMRNVALEEQAVEAVLAKAKVTEKETTFNELMNQQA | 1.1 |
| TF(3A) with mutation set mutB (M374A, Y378A, V384A, F387A) (natural protein, E. coli, UniProt P0A850 1-432, looked up, Trigger Factor, E. coli, residues 1-432, TF(3A) background; not shown: His6, N-terminal, cleaved) MQVSVETTQGLGRRVTITIAADSIETAVKSELVNVAKKVRIDGAAAGKVPMNIVAQRYGASVRQDVLGDLMSRNFIDAIIKEKINPAGAPTYVPGEYKLGEDFTYSVEFEVYPEVELQGLEAIEVEKPIVEVTDADVDGMLDTLRKQQATWKEKDGAVEAEDRVTIDFTGSVDGEEFEGGKASDFVLAMGQGRMIPGFEDGIKGHKAGEEFTIDVTFPEEYHAENLKGKAAKFAINLKKVEERELPELTAEFIKRFGVEDGSVEGLRAEVRKNMERELKSAIRNRVKSQAIEGLVKANDIDVPAALIDSEIDVLRRQAAQRFGGNEKQALELPRELFEEQAKRRVVVGLLLGEVIRTNELKADEERVKGLIEEAASAAEDPKEAIEAYSKNKELMDNMRNVALEEQAVEAVLAKAKVTEKETTFNELMNQQA | > 1000 |
